Measurements reported in EP4588489A1, “LINKER FOR ANTIBODY-DRUG CONJUGATE AND USE THEREOF” (priority 2022, dated 2024).
Like-named read-outs stand apart in the source and are kept apart here.

T1: TROP2 (UniProt P09758 27-323, limits assumed)
T1 sequence (looked up): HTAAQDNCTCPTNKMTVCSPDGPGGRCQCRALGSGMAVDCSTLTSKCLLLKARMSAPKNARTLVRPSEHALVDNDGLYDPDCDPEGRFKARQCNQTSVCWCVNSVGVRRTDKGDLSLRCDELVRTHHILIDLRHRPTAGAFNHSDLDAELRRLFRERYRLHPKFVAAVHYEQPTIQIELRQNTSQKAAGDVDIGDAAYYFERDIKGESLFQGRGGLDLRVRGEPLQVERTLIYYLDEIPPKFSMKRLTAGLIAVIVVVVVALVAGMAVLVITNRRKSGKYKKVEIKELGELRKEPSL


Legend:
Test in all cases: cell-based or functional assay
TROP2 [1] = molecular target: T1, TROP2
TROP2 [2] = molecular target: T1, TROP2; remark: listed apart in the source
TROP2 [3] = molecular target: T1, TROP2; remark: listed apart in the source

EC50(nM), inhibition of BxPC-3 cell proliferation (TROP2 [1]) [nM]	Relative activity (%), inhibition of BxPC-3 cell proliferation (TROP2 [1]) [%]	EC50(nM), inhibition of BxPC-3 cell proliferation (TROP2 [2]) [nM]	Relative activity (%), inhibition of BxPC-3 cell proliferation (TROP2 [2]) [%]	EC50(nM), inhibition of BxPC-3 cell proliferation (TROP2 [3]) [nM]	Relative activity (%), inhibition of BxPC-3 cell proliferation (TROP2 [3]) [%]	Binder
0.309	156	–	–	–	–	hRS7-CPD3-NC-D4 (antibody, human IgG1, kappa, V domains shown, linker-drug CPD3 on cysteines of reduced interchain disulfides; label D4) VH: QVQLQQSGSELKKPGASVKVSCKASGYTFTNYGMNWVKQAPGQGLKWMGWINTYTGEPTYTDDFKGRFAFSLDTSVSTAYLQISSLKADDTAVYFCARGGFGSSYWYFDVWGQGSLVTVSS VL: DIQLTQSPSSLSASVGDRVSITCKASQDVSIAVAWYQQKPGKAPKLLIYSASYRYTGVPDRFSGSGSGTDFTLTISSLQPEDFAVYYCQQHYITPLTFGAGTKVEIKR
0.424	89.6	–	–	–	–	hRS7-CPD4-NC-D4 (antibody, human IgG1, kappa, V domains shown, linker-drug CPD4 on cysteines of reduced interchain disulfides; label D4) VH: QVQLQQSGSELKKPGASVKVSCKASGYTFTNYGMNWVKQAPGQGLKWMGWINTYTGEPTYTDDFKGRFAFSLDTSVSTAYLQISSLKADDTAVYFCARGGFGSSYWYFDVWGQGSLVTVSS VL: DIQLTQSPSSLSASVGDRVSITCKASQDVSIAVAWYQQKPGKAPKLLIYSASYRYTGVPDRFSGSGSGTDFTLTISSLQPEDFAVYYCQQHYITPLTFGAGTKVEIKR
–	–	–	–	0.101	155	hRS7-CPT005-D4 (antibody, human IgG1, kappa, V domains shown, linker-drug CPT005 on cysteines of reduced interchain disulfides; label D4) VH: QVQLQQSGSELKKPGASVKVSCKASGYTFTNYGMNWVKQAPGQGLKWMGWINTYTGEPTYTDDFKGRFAFSLDTSVSTAYLQISSLKADDTAVYFCARGGFGSSYWYFDVWGQGSLVTVSS VL: DIQLTQSPSSLSASVGDRVSITCKASQDVSIAVAWYQQKPGKAPKLLIYSASYRYTGVPDRFSGSGSGTDFTLTISSLQPEDFAVYYCQQHYITPLTFGAGTKVEIKR
0.327	147	–	–	–	–	hRS7-CPD2-NC-D4 (antibody, human IgG1, kappa, V domains shown, linker-drug CPD2 on cysteines of reduced interchain disulfides; label D4) VH: QVQLQQSGSELKKPGASVKVSCKASGYTFTNYGMNWVKQAPGQGLKWMGWINTYTGEPTYTDDFKGRFAFSLDTSVSTAYLQISSLKADDTAVYFCARGGFGSSYWYFDVWGQGSLVTVSS VL: DIQLTQSPSSLSASVGDRVSITCKASQDVSIAVAWYQQKPGKAPKLLIYSASYRYTGVPDRFSGSGSGTDFTLTISSLQPEDFAVYYCQQHYITPLTFGAGTKVEIKR
0.478	79.6	–	–	–	–	hRS7-CPD5-NC-D4 (antibody, human IgG1, kappa, V domains shown, linker-drug CPD5 on cysteines of reduced interchain disulfides; label D4) VH: QVQLQQSGSELKKPGASVKVSCKASGYTFTNYGMNWVKQAPGQGLKWMGWINTYTGEPTYTDDFKGRFAFSLDTSVSTAYLQISSLKADDTAVYFCARGGFGSSYWYFDVWGQGSLVTVSS VL: DIQLTQSPSSLSASVGDRVSITCKASQDVSIAVAWYQQKPGKAPKLLIYSASYRYTGVPDRFSGSGSGTDFTLTISSLQPEDFAVYYCQQHYITPLTFGAGTKVEIKR
–	–	–	–	0.353	50.7	hRS7-CPT009-D4 (antibody, human IgG1, kappa, V domains shown, linker-drug CPT009 on cysteines of reduced interchain disulfides; label D4) VH: QVQLQQSGSELKKPGASVKVSCKASGYTFTNYGMNWVKQAPGQGLKWMGWINTYTGEPTYTDDFKGRFAFSLDTSVSTAYLQISSLKADDTAVYFCARGGFGSSYWYFDVWGQGSLVTVSS VL: DIQLTQSPSSLSASVGDRVSITCKASQDVSIAVAWYQQKPGKAPKLLIYSASYRYTGVPDRFSGSGSGTDFTLTISSLQPEDFAVYYCQQHYITPLTFGAGTKVEIKR
–	–	–	–	0.144	109	hRS7-CPT004-D4 (antibody, human IgG1, kappa, V domains shown, linker-drug CPT004 on cysteines of reduced interchain disulfides; label D4) VH: QVQLQQSGSELKKPGASVKVSCKASGYTFTNYGMNWVKQAPGQGLKWMGWINTYTGEPTYTDDFKGRFAFSLDTSVSTAYLQISSLKADDTAVYFCARGGFGSSYWYFDVWGQGSLVTVSS VL: DIQLTQSPSSLSASVGDRVSITCKASQDVSIAVAWYQQKPGKAPKLLIYSASYRYTGVPDRFSGSGSGTDFTLTISSLQPEDFAVYYCQQHYITPLTFGAGTKVEIKR
0.341	111	–	–	–	–	hRS7-CPD6-NC-D4 (antibody, human IgG1, kappa, V domains shown, linker-drug CPD6 on cysteines of reduced interchain disulfides; label D4) VH: QVQLQQSGSELKKPGASVKVSCKASGYTFTNYGMNWVKQAPGQGLKWMGWINTYTGEPTYTDDFKGRFAFSLDTSVSTAYLQISSLKADDTAVYFCARGGFGSSYWYFDVWGQGSLVTVSS VL: DIQLTQSPSSLSASVGDRVSITCKASQDVSIAVAWYQQKPGKAPKLLIYSASYRYTGVPDRFSGSGSGTDFTLTISSLQPEDFAVYYCQQHYITPLTFGAGTKVEIKR
–	–	–	–	6.46	–	hRS7-SN38-D8 (antibody, human IgG1, kappa, V domains shown, comp.5-linked SN38 on cysteines of reduced interchain disulfides; label D8) VH: QVQLQQSGSELKKPGASVKVSCKASGYTFTNYGMNWVKQAPGQGLKWMGWINTYTGEPTYTDDFKGRFAFSLDTSVSTAYLQISSLKADDTAVYFCARGGFGSSYWYFDVWGQGSLVTVSS VL: DIQLTQSPSSLSASVGDRVSITCKASQDVSIAVAWYQQKPGKAPKLLIYSASYRYTGVPDRFSGSGSGTDFTLTISSLQPEDFAVYYCQQHYITPLTFGAGTKVEIKR
–	–	–	–	0.259	60.4	hRS7-CPT006-D4 (antibody, human IgG1, kappa, V domains shown, linker-drug CPT006 on cysteines of reduced interchain disulfides; label D4) VH: QVQLQQSGSELKKPGASVKVSCKASGYTFTNYGMNWVKQAPGQGLKWMGWINTYTGEPTYTDDFKGRFAFSLDTSVSTAYLQISSLKADDTAVYFCARGGFGSSYWYFDVWGQGSLVTVSS VL: DIQLTQSPSSLSASVGDRVSITCKASQDVSIAVAWYQQKPGKAPKLLIYSASYRYTGVPDRFSGSGSGTDFTLTISSLQPEDFAVYYCQQHYITPLTFGAGTKVEIKR

Continued, binder first:

Binder	EC50(nM), inhibition of BxPC-3 cell proliferation (TROP2 [1]) [nM]	Relative activity (%), inhibition of BxPC-3 cell proliferation (TROP2 [1]) [%]	EC50(nM), inhibition of BxPC-3 cell proliferation (TROP2 [2]) [nM]	Relative activity (%), inhibition of BxPC-3 cell proliferation (TROP2 [2]) [%]	EC50(nM), inhibition of BxPC-3 cell proliferation (TROP2 [3]) [nM]	Relative activity (%), inhibition of BxPC-3 cell proliferation (TROP2 [3]) [%]
hRS7-C7-D4 (antibody, human IgG1, kappa, V domains shown, linker-drug comp7 on cysteines of reduced interchain disulfides; DAR 3.56) VH: QVQLQQSGSELKKPGASVKVSCKASGYTFTNYGMNWVKQAPGQGLKWMGWINTYTGEPTYTDDFKGRFAFSLDTSVSTAYLQISSLKADDTAVYFCARGGFGSSYWYFDVWGQGSLVTVSS VL: DIQLTQSPSSLSASVGDRVSITCKASQDVSIAVAWYQQKPGKAPKLLIYSASYRYTGVPDRFSGSGSGTDFTLTISSLQPEDFAVYYCQQHYITPLTFGAGTKVEIKR	–	–	0.305	103	–	–
hRS7-C8-D4 (antibody, human IgG1, kappa, V domains shown, linker-drug comp8 on cysteines of reduced interchain disulfides; DAR 3.52) VH: QVQLQQSGSELKKPGASVKVSCKASGYTFTNYGMNWVKQAPGQGLKWMGWINTYTGEPTYTDDFKGRFAFSLDTSVSTAYLQISSLKADDTAVYFCARGGFGSSYWYFDVWGQGSLVTVSS VL: DIQLTQSPSSLSASVGDRVSITCKASQDVSIAVAWYQQKPGKAPKLLIYSASYRYTGVPDRFSGSGSGTDFTLTISSLQPEDFAVYYCQQHYITPLTFGAGTKVEIKR	–	–	0.323	97	–	–
hRS7-C6-D4 (antibody, human IgG1, kappa, V domains shown, linker-drug comp6 on cysteines of reduced interchain disulfides; DAR 3.49) VH: QVQLQQSGSELKKPGASVKVSCKASGYTFTNYGMNWVKQAPGQGLKWMGWINTYTGEPTYTDDFKGRFAFSLDTSVSTAYLQISSLKADDTAVYFCARGGFGSSYWYFDVWGQGSLVTVSS VL: DIQLTQSPSSLSASVGDRVSITCKASQDVSIAVAWYQQKPGKAPKLLIYSASYRYTGVPDRFSGSGSGTDFTLTISSLQPEDFAVYYCQQHYITPLTFGAGTKVEIKR	–	–	0.393	80	–	–
hRS7-CL2A-SN38-D8 (antibody, human IgG1, kappa, V domains shown, CL2A-SN38 on cysteines of reduced interchain disulfides; label D8) VH: QVQLQQSGSELKKPGASVKVSCKASGYTFTNYGMNWVKQAPGQGLKWMGWINTYTGEPTYTDDFKGRFAFSLDTSVSTAYLQISSLKADDTAVYFCARGGFGSSYWYFDVWGQGSLVTVSS VL: DIQLTQSPSSLSASVGDRVSITCKASQDVSIAVAWYQQKPGKAPKLLIYSASYRYTGVPDRFSGSGSGTDFTLTISSLQPEDFAVYYCQQHYITPLTFGAGTKVEIKR	–	–	–	–	0.259	100
hRS7-C9-D4 (antibody, human IgG1, kappa, V domains shown, linker-drug comp9 on cysteines of reduced interchain disulfides; DAR 3.54) VH: QVQLQQSGSELKKPGASVKVSCKASGYTFTNYGMNWVKQAPGQGLKWMGWINTYTGEPTYTDDFKGRFAFSLDTSVSTAYLQISSLKADDTAVYFCARGGFGSSYWYFDVWGQGSLVTVSS VL: DIQLTQSPSSLSASVGDRVSITCKASQDVSIAVAWYQQKPGKAPKLLIYSASYRYTGVPDRFSGSGSGTDFTLTISSLQPEDFAVYYCQQHYITPLTFGAGTKVEIKR	–	–	0.377	108	–	–
DXD (deruxtecan)-conjugated sacituzumab (hRS7-DXD) (antibody, human IgG1, kappa, V domains shown, deruxtecan (DXD) on cysteines of reduced interchain disulfides; label D4) VH: QVQLQQSGSELKKPGASVKVSCKASGYTFTNYGMNWVKQAPGQGLKWMGWINTYTGEPTYTDDFKGRFAFSLDTSVSTAYLQISSLKADDTAVYFCARGGFGSSYWYFDVWGQGSLVTVSS VL: DIQLTQSPSSLSASVGDRVSITCKASQDVSIAVAWYQQKPGKAPKLLIYSASYRYTGVPDRFSGSGSGTDFTLTISSLQPEDFAVYYCQQHYITPLTFGAGTKVEIKR	0.38	100	–	100	0.156	100
hRS7-CPD1-NC-D4 (antibody, human IgG1, kappa, V domains shown, linker-drug CPD1 on cysteines of reduced interchain disulfides; label D4) VH: QVQLQQSGSELKKPGASVKVSCKASGYTFTNYGMNWVKQAPGQGLKWMGWINTYTGEPTYTDDFKGRFAFSLDTSVSTAYLQISSLKADDTAVYFCARGGFGSSYWYFDVWGQGSLVTVSS VL: DIQLTQSPSSLSASVGDRVSITCKASQDVSIAVAWYQQKPGKAPKLLIYSASYRYTGVPDRFSGSGSGTDFTLTISSLQPEDFAVYYCQQHYITPLTFGAGTKVEIKR	0.468	103	–	–	–	–
